Reference: paper PMC5385526 (Scientific Reports, 2017)

Legend:
[1] = target: seleno-Met, endoglycosidase H-treated porcine APN ectodomain (pig) (UniProt P15145); experiment: crystal structure; HA-tagged APN ectodomains; pAPNeh: 5% PEG-1000, 10% PEG-8000 (pH ~6); native pAPN: 20% PEG-3350, 100 mM sodium acetate pH 5.6; hAPN: 20% PEG-6000, 50 mM imidazole-HCl pH 8.0; dimer in the crystals
[2] = target: TGEV RBD-Fc fusion protein (bivalent RBD-Fc variant); experiment: flow cytometry on cells; conditions: 293T cell surface, normalized to cell surface expression, read off a plot
[3] = target: porcine aminopeptidase N (pAPN) ectodomain, soluble (pig) (UniProt P15145); experiment: crystal structure; HA-tagged APN ectodomains; pAPNeh: 5% PEG-1000, 10% PEG-8000 (pH ~6); native pAPN: 20% PEG-3350, 100 mM sodium acetate pH 5.6; hAPN: 20% PEG-6000, 50 mM imidazole-HCl pH 8.0; dimer in the crystals
[4] = target: the molecule itself; experiment: as above
[5] = + DTT (5 mM; 30 min, 37 °C) before assay, parent: est. 110

Row | Molecule | percent of parent [2, 5] [%] | percent of parent ([2]; - DTT, parent: est. 100) [%] | further results
1 | seleno-Met, endoglycosidase H-treated porcine APN ectodomain (from UniProt P15145 36-963) (domain or fragment) | – | – | stoichiometry N [1]: 2
2 | wild type porcine APN on the surface of transiently transfected 293T cells (from UniProt P15145) S464C; S892C | 120 | 45 | –
3 | wild type porcine APN on the surface of transiently transfected 293T cells (from UniProt P15145) S464C; S929C | 110 | 19 | –
4 | wild type porcine APN on the surface of transiently transfected 293T cells (from UniProt P15145) S464C; S892C; S929C | 76 | 37 | –
5 | porcine aminopeptidase N (pAPN) ectodomain, soluble (from UniProt P15145 36-963) (domain or fragment) | – | – | stoichiometry N [3]: 2
6 | human aminopeptidase N (hAPN) ectodomain, soluble (domain or fragment, UniProt P15144 36-967, looked up) EKNKNANSSPVASTTPSASATTNPASATTLDQSKAWNRYRLPNTLKPDSYRVTLRPYLTPNDRGLYVFKGSSTVRFTCKEATDVIIIHSKKLNYTLSQGHRVVLRGVGGSQPPDIDKTELVEPTEYLVVHLKGSLVKDSQYEMDSEFEGELADDLAGFYRSEYMEGNVRKVVATTQMQAADARKSFPCFDEPAMKAEFNITLIHPKDLTALSNMLPKGPSTPLPEDPNWNVTEFHTTPKMSTYLLAFIVSEFDYVEKQASNGVLIRIWARPSAIAAGHGDYALNVTGPILNFFAGHYDTPYPLPKSDQIGLPDFNAGAMENWGLVTYRENSLLFDPLSSSSSNKERVVTVIAHELAHQWFGNLVTIEWWNDLWLNEGFASYVEYLGADYAEPTWNLKDLMVLNDVYRVMAVDALASSHPLSTPASEINTPAQISELFDAISYSKGASVLRMLSSFLSEDVFKQGLASYLHTFAYQNTIYLNLWDHLQEAVNNRSIQLPTTVRDIMNRWTLQMGFPVITVDTSTGTLSQEHFLLDPDSNVTRPSEFNYVWIVPITSIRDGRQQQDYWLIDVRAQNDLFSTSGNEWVLLNLNVTGYYRVNYDEENWRKIQTQLQRDHSAIPVINRAQIINDAFNLASAHKVPVTLALNNTLFLIEERQYMPWEAALSSLSYFKLMFDRSEVYGPMKNYLKKQVTPLFIHFRNNTNNWREIPENLMDQYSEVNAISTACSNGVPECEEMVSGLFKQWMENPNNNPIHPNLRSTVYCNAIAQGGEEEWDFAWEQFRNATLVNEADKLRAALACSKELWILNRYLSYTLNPDLIRKQDATSTIISITNNVIGQGLVWDFVQSNWKKLFNDYGGGSFSFSNLIQAVTRRFSTEYELQQLEQFKKDNEETGFGSGTRALEQALEKTKANIKWVKENKEVVLQWFTENSK | – | – | stoichiometry N [4]: 2
